Positions count from the first letter of the chain named. One block for each binder: values may come before it.
How the values were obtained:
cyno MerTK-his protein = target: T1, cyno MerTK-his protein (cynomolgus, UniProt A0A2K5V1H9 27-505); experiment: ELISA, coated cyno MerTK-his
T1 construct: also called cyno MerTK protein; Cynomolgus
T1 sequence: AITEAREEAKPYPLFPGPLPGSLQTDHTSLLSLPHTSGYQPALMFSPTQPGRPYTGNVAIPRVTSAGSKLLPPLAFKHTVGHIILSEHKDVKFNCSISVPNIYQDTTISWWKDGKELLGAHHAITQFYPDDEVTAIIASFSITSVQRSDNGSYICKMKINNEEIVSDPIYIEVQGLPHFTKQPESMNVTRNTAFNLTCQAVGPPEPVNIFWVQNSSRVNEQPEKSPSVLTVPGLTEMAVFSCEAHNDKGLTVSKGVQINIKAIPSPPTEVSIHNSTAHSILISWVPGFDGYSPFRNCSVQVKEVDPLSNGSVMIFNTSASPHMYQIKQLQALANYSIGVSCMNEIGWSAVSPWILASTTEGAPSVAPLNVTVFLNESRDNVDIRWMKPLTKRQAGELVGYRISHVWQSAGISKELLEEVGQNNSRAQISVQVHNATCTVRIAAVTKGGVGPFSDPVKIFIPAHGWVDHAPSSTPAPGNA
Experimental: (§1) To evaluate the binding activity, the chimeric mAbs were subjected to ELISA test. Briefly, 96-well plates were coated with human or cyno MerTK-his protein at 2 μg/mL in PBS, 100 μL/well at 4° C. overnight, then blocked with 150 μL/well of 1% BSA. Five-fold dilutions of MerTK antibodies starting from 20 nM were added to each well and incubated for 1 hour at room temperature. The plates were washed with PBS/Tween-20 and then incubated with goat anti-human IgG Fe antibody conjugated with Horse Radish Peroxidase (HRP) for 30 minutes (mins) at room temperature. After washing, the plates were developed with TMB substrate and subsequent stop solution was added to complete the reaction. The signal from each well was read by spectrophotometer at OD 450 nm.

human MerTK-his protein [1] = target: T2, human MerTK-his protein (human, UniProt Q12866 21-505); experiment: ELISA, coated human MerTK-his
T2 construct: extracellular domain; also called hMerTK-His; human MerTK protein
T2 sequence (looked up): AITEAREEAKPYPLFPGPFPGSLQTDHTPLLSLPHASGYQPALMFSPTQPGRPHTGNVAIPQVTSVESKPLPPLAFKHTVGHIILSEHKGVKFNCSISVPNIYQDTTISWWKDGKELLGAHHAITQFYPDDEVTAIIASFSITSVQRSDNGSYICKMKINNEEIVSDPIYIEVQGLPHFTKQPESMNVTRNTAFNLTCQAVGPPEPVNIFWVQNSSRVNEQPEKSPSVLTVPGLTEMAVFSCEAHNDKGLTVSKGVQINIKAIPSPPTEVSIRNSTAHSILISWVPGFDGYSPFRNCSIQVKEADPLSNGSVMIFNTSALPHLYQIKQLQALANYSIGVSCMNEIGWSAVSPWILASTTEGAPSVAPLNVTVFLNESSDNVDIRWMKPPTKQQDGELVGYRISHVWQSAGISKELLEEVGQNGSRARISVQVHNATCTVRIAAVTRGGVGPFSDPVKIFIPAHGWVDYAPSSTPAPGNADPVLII
Experimental: as §1

human MerTK-his protein [2] = target: T2, human MerTK-his protein; experiment: SPR Biacore T200, antibody captured on Protein A chip
Experimental: The binding affinity of the MerTK chimeric antibodies to human MerTK-his protein was tested with Biacroe™ T200 using a capture method. Briefly, the antibodies were captured with a Pro-A chip. […] The antigen was allowed to dissociate for 420-800 s. Data analysis was carried out using Biacore™ T200 evaluation software.

[3] = target: T3, human MerTK expressed on cells (human, UniProt Q12866 21-999); experiment: FACS on SK-MEL-5 cells expressing human MerTK, geometric mean
T3 construct: whole, on cells; also called CHO-K1-hMerTK; CHO-K1-MerTK
T3 sequence (looked up): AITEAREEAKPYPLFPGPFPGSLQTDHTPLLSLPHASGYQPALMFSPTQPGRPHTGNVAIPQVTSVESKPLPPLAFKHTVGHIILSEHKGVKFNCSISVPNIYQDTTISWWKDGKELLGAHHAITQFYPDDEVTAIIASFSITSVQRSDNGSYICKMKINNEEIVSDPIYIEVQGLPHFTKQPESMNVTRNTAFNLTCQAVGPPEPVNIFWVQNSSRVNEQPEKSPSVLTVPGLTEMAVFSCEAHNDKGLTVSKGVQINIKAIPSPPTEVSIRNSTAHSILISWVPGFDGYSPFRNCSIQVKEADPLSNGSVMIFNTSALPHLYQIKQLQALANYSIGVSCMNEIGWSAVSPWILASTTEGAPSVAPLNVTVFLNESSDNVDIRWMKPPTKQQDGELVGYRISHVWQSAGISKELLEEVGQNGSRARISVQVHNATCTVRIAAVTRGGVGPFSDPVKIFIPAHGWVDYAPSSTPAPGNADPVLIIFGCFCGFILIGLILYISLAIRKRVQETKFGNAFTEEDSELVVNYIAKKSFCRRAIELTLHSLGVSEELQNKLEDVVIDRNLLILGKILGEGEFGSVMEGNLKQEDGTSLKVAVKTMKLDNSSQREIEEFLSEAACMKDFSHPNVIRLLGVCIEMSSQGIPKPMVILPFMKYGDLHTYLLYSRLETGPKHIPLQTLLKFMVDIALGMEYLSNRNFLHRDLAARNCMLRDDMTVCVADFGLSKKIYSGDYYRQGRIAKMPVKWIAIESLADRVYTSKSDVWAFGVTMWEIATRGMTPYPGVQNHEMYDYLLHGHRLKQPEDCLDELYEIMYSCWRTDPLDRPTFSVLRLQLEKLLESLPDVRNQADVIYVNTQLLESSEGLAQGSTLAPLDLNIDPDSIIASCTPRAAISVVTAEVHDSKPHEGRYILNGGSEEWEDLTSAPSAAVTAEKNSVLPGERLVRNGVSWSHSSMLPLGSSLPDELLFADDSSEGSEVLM
Experimental: To evaluate the binding properties on MerTK expressed on cells, the chimeric monoclonal antibodies were analyzed for their binding to human melanoma cell line SK-MEL-5 expressing MerTK by FACS analysis. Briefly, SK-MEL-5 cells were firstly incubated with 5-fold serially diluted chimeric mAbs starting at 20 nM at 4° C. for 30 mins. After washing by FACS buffer, the PE conjugated anti-human IgG secondary antibody was incubated with the cell-antibody complex in the wells at 4° C. for 30 mins to detect the antibodies those bound to the cells. The MFI of PE was evaluated by QuantAnalyzer 16.

EC50 (cyno MerTK-his protein): 0.026 nM
EC50 (human MerTK-his protein [1]): 0.024 nM
Kd (human MerTK-his protein [2]): 1.36 nM
koff (human MerTK-his protein [2]): 0.00029 s⁻¹
kon (human MerTK-his protein [2]): 214000 M⁻¹ s⁻¹
EC50 [3]: 0.074 nM
Top [3]: 7490 Geometric Mean
B1: 300A5A3 chimeric monoclonal antibody (antibody, V domains shown)
VH: QVQLQQSGPELVKPGASVKLSCKASGYTFTTYDINWVKQRPGLGLEWIGWIYPRDGYTKYNEKFKGKATLAVDTSSSTASMELHSLTSEDSAVYFCARGYYDNLYYFDNWGPGTTLTVSS
VL: ENVLTQSPTTVAASPGEKITITCSASSIISSNYLHWYQQKPGFSPKLLIYRTSNLASGVPARFSGSGSGTSYSLTIGTMEAEDAATYYCQQGRSVPLTFGAGTKLELK

EC50 (cyno MerTK-his protein): 0.014 nM
EC50 (human MerTK-his protein [1]): 0.012 nM
Kd (human MerTK-his protein [2]): 3.08 nM
koff (human MerTK-his protein [2]): 0.000553 s⁻¹
kon (human MerTK-his protein [2]): 179000 M⁻¹ s⁻¹
EC50 [3]: 0.039 nM
Top [3]: 7490 Geometric Mean
B2: 280C6A3 chimeric monoclonal antibody (antibody, V domains shown)
VH: B1 VH with T28S, L43Q, Y57S, A71T, V72L, S77N, S80Y, E82G, N109Y, P112Q
VL: B1 VL with N2I, V11M, I28S, I29V, A84V, S94I
